# Columns and labels:
# [1] = target: T1, dmL2HGDH (Drosophila melanogaster, UniProt Q9VJ28); assay: crystal structure, […] Å; absorbance at […] nm; assay type: binding; conditions: FAD co-purified from E. coli expression
# T1 construct: gene L2HGDH; residues 41-455, mitochondrial-targeting peptide (1-40) removed; N-terminal His6-SUMO tag cleaved by ULP1; E. coli; tetramer about 178 kDa
# [2] = target: T1, dmL2HGDH; assay: inhibition of L-2-HG oxidation, DCIP reduction at […] nm; assay type: biochemical; conditions: read-out: % inhibition at 10 mM
# [3] = target: dmL2HGDH with Cys77 substituted by alanine (Drosophila melanogaster) (UniProt Q9VJ28); assay: not stated; tetrameric state of the Cys77 to alanine mutant in solution (Fig. S11E)
# [4] = substrate: O=C(O)CC[C@H](O)C(=O)O; assay: purified protein; assay type: biochemical, Drosophila melanogaster; conditions: 200 μM phenazine methosulfate, 100 μM DCIP, 50 mM Hepes pH 7.5, about 25 °C, corrected for FAD occupancy
# [5] = target: the molecule itself; assay: SEC-MALS; protein solution 2 mg/ml on Superdex 200 10/300; 20 mM Hepes pH 7.4, 200 mM NaCl; 0.4 ml/min
Molecule,Km [4] [µM],Vmax [4] [µmol/min/mg],kcat [4] [s⁻¹],kcat/Km [4] [M⁻¹ s⁻¹],also measured
Cc1cc2nc3c(=O)[nH]c(=O)nc-3n(C[C@H](O)[C@H](O)[C@H](O)COP(=O)(O)OP(=O)(O)OC[C@H]3O[C@@H](n4cnc5c(N)ncnc54)[C@H](O)[C@@H]3O)c2cc1C [FAD],,,,,"crystal structure, 2.85 Å; absorbance at 450 nm [1]: In each monomer, there are an FAD bound at the active site"
O=C(O)C[C@H](O)C(=O)O [L-MAL],,,,,inhibition at 10000 µM [2]: < 30%
dmL2HGDH with Cys77 substituted by alanine (from UniProt Q9VJ28 41-455) (enzyme),,,,,stoichiometry N [3]: 4
"Drosophila melanogaster L-2-hydroxyglutarate dehydrogenase (dmL2HGDH), residues 41-455 (enzyme, UniProt Q9VJ28 41-455, looked up, L-2-hydroxyglutarate dehydrogenase, Drosophila melanogaster, residues 41-455; the N-terminal 1 to 40 residues (mitochondrial-targeting peptide) removed; Gene synthesized by Sangon Biotech; also called WT dmL2HGDH; truncated dmL2HGDH; source: E. coli BL21 Codon-Plus (DE3)-RIPL, purified (Ni-NTA, tag removal by ULP1, Superdex 200); not shown: His6, N-terminal, cleaved; SUMO, N-terminal, cleaved) GDYDLVVVGGGIVGAASAREIVLRHPSLKVAVLEKECKLAKHQSGHNSGVIHAGIYYKPGTLKARLCVEGMHLAYAYLDEKKIPYKKTGKLIVATDEKEVKLLKDLEKRGIANNVPDLRMIEGSEIQEIEPYCQGVMALHSPHTGIVDWGLVTEHYGQDFKQCGGDIYLDFNVSKFTETKEGTDYPVTIHGAKPGQTVRTKNVLTCGGLQSDLLAEKTGCPRDPRIVPFRGEYLLLTKEKQHMVKGNIYPVPDPRFPFLGVHFTPRMDGSIWLGPNAVLALKREGYTWGDINLFELFDALRYPGFVKMASKYIGFGLSEMSKSWFINLQIKALQKYIPDITEYDIQRGPAGVRAQAMDLDGNLVDDFVFDRGQGSGALAKRVLHCRNAPSPGATSSLAIAKMIADKIENEFSIGK",130 ± 8,10.2,7.76 ± 0.11,59700,stoichiometry N [5]: 4
"dmL2HGDH (Drosophila melanogaster; S88A) (protein, residues 41-455, mitochondrial-targeting peptide (1-40) removed; N-terminal His6-SUMO tag cleaved by ULP1; E. coli; tetramer about 178 kDa) GDYDLVVVGGGIVGAASAREIVLRHPSLKVAVLEKECKLAKHQSGHNAGVIHAGIYYKPGTLKARLCVEGMHLAYAYLDEKKIPYKKTGKLIVATDEKEVKLLKDLEKRGIANNVPDLRMIEGSEIQEIEPYCQGVMALHSPHTGIVDWGLVTEHYGQDFKQCGGDIYLDFNVSKFTETKEGTDYPVTIHGAKPGQTVRTKNVLTCGGLQSDLLAEKTGCPRDPRIVPFRGEYLLLTKEKQHMVKGNIYPVPDPRFPFLGVHFTPRMDGSIWLGPNAVLALKREGYTWGDINLFELFDALRYPGFVKMASKYIGFGLSEMSKSWFINLQIKALQKYIPDITEYDIQRGPAGVRAQAMDLDGNLVDDFVFDRGQGSGALAKRVLHCRNAPSPGATSSLAIAKMIADKIENEFSIGK",560 ± 150,1.56,1.19 ± 0.13,2130,
"dmL2HGDH (Drosophila melanogaster; R393A) (protein, residues 41-455, mitochondrial-targeting peptide (1-40) removed; N-terminal His6-SUMO tag cleaved by ULP1; E. coli; tetramer about 178 kDa) GDYDLVVVGGGIVGAASAREIVLRHPSLKVAVLEKECKLAKHQSGHNSGVIHAGIYYKPGTLKARLCVEGMHLAYAYLDEKKIPYKKTGKLIVATDEKEVKLLKDLEKRGIANNVPDLRMIEGSEIQEIEPYCQGVMALHSPHTGIVDWGLVTEHYGQDFKQCGGDIYLDFNVSKFTETKEGTDYPVTIHGAKPGQTVRTKNVLTCGGLQSDLLAEKTGCPRDPRIVPFRGEYLLLTKEKQHMVKGNIYPVPDPRFPFLGVHFTPRMDGSIWLGPNAVLALKREGYTWGDINLFELFDALRYPGFVKMASKYIGFGLSEMSKSWFINLQIKALQKYIPDITEYDIQRGPAGVAAQAMDLDGNLVDDFVFDRGQGSGALAKRVLHCRNAPSPGATSSLAIAKMIADKIENEFSIGK",240 ± 30,5.68,4.34 ± 0.15,18100,

# Reference: article PMC10726252, “Structure and biochemical characterization of L-2-hydroxyglutarate dehydrogenase and its role in the pathogenesis of L-2-hydroxyglutaric aciduria” (The Journal of Biological Chemistry, 2023)
